B1: 51A12 Fab (Fab, V domains shown)
VH: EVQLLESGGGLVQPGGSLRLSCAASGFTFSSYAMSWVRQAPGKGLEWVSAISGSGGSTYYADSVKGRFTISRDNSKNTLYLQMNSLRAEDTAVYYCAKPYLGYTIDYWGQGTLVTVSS
VL: SSELTQDPAVSVALGQTVRITCQGDSLRSYYASWYQQKPGQAPVLVIYGKNNRPSGIPDRFSASSSGNTASLTITGAQAEDEADYYCNSRDICCNRSVRNFGGGTKLTVL
notes: Human lambda Fab from E. coli, purified by IMAC; also called clone 51A12; parental clone 51A12
B2: 52C4 Fab (Fab, V domains shown)
VH: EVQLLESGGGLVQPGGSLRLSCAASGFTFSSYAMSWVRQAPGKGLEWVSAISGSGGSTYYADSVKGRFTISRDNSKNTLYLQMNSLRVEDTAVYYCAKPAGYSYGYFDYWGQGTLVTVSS
VL: SSELTQDPAVSVALGQTVRITCQGDSLRSYYASWYQQKPGQAPVLVIYGKNNRPSGIPDRFSGSSSGNTASLTITGAQAEDEADYYCNSGASSGNQLVFGGGTKLTVL
notes: Human lambda Fab from E. coli
B3: 4F3 Fab (Fab, V domains shown)
VH: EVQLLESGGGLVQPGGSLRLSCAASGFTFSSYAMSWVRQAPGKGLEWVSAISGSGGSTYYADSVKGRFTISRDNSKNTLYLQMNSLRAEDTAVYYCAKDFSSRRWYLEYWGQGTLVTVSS
VL: SSELTQDPAVSVALGQTVRITCQGDSLRSYYASWYQQKPGQAPVLVIYGKNNRPSGIPDRFSGSSSGNTASLTITGAQAEDEADYYCNSLERIGYLSYVFGGGTKLTVL
notes: Human lambda Fab from E. coli; also called clone 4F3
B4: R9E10 Fab (Fab, V domains shown)
VH: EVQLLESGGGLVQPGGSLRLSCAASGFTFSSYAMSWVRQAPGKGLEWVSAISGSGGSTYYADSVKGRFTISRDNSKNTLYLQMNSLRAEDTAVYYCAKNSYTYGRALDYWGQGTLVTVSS
VL: SSELTQDPAVSVALGQTVRITCQGDSLRSYYASWYQQKPGQAPVLVIYGKNNRPSGIPDRFSGSSSGNTASLTITGAQAEDEADYYCNSRNVRGKLVFGGGTKLTVL
notes: Human lambda Fab from E. coli
B5: R5C2 Fab (Fab, V domains shown)
VH: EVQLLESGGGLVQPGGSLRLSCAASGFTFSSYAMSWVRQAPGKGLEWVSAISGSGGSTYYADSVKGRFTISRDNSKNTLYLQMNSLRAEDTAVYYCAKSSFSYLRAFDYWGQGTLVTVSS
VL: B4 VL with K50R, N91D, V92R, K95Y, L96S
notes: Human lambda Fab from E. coli
B6: R7E12 Fab (Fab, V domains shown)
VH: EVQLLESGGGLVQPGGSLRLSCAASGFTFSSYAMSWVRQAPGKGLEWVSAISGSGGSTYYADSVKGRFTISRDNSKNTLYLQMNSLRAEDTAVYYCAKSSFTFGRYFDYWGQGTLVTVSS
VL: B2 VL with G90R, A91K, G94S, N95K, Q96N, L97V
notes: To be rechecked
B7: 51A12 A82G S116A Fab (Fab, V domains shown)
VH: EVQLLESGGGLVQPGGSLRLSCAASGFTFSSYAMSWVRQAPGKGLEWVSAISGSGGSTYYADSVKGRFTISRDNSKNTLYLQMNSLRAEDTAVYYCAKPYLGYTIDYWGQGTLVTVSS
VL: SSELTQDPAVSVALGQTVRITCQGDSLRSYYASWYQQKPGQAPVLVIYGKNNRPSGIPDRFSGSSSGNTASLTITGAQAEDEADYYCNSRDICCNRAVRNFGGGTKLTVLG
notes: Light chain variant of 51A12 with the parental heavy chain; To be rechecked
B8: 51A12_E7 Fab (Fab, V domains shown)
VH: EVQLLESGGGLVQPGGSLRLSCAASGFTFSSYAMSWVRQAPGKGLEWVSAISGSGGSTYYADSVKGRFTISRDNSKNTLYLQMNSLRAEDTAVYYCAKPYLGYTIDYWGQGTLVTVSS
VL: B1 VL with A63G, I92Y, C93R, C94Y, S97A, N100P
notes: Fab
B9: 51A12_H3 Fab (Fab, V domains shown)
VH: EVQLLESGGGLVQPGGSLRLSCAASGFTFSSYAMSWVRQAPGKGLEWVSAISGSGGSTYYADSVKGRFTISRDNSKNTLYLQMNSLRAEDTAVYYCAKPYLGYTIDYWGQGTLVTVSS
VL: B1 VL with A63G, I92Y, C93K, C94F, S97V
notes: Fab
B10: 51A12_A6 Fab (Fab, V domains shown)
VH: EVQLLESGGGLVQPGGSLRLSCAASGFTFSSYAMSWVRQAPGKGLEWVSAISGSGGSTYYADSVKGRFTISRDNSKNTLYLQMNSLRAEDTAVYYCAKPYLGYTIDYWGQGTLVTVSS
VL: B1 VL with A63G, D91T, I92Y, C93S, C94Y, S97A
notes: Fab; also called Variant 51A12_A6
B11: 51A12 S116A Fab (Fab, V domains shown)
VH: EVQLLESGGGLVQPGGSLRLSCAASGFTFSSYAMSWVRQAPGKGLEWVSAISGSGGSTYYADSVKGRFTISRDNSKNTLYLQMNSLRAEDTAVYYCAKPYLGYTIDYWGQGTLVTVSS
VL: B1 VL with S97A
notes: Fab
B12: 51A12_C7 Fab (Fab, V domains shown)
VH: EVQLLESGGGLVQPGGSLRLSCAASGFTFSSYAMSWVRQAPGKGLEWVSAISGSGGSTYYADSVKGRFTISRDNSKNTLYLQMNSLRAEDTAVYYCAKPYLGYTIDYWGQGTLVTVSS
VL: B1 VL with A63G, C93R, C94Y, S97V, N100P
notes: Fab
B13: 51A12_D1 Fab (Fab, V domains shown)
VH: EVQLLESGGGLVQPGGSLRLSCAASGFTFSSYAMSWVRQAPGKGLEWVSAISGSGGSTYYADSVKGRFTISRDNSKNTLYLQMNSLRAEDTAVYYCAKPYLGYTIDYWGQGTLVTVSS
VL: B1 VL with A63G, D91T, I92Y, C93S, C94Y, S97A, N100P
notes: Fab
B14: 51A12_C1 Fab (Fab, V domains shown)
VH: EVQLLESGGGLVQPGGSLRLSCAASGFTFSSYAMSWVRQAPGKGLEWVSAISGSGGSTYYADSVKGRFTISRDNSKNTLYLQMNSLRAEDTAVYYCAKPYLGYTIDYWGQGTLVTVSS
VL: B1 VL with A63G, D91S, I92Y, C93A, C94F, S97V
notes: Fab
B15: 51A12_H6 Fab (Fab, V domains shown)
VH: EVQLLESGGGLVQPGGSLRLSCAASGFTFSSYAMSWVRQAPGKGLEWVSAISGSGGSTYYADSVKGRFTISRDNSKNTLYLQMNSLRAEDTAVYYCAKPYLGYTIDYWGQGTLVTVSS
VL: B1 VL with A63G, I92Y, C93K, C94W, S97V, N100H
notes: Fab
B16: 51A12 IgG (antibody, V domains shown)
VH: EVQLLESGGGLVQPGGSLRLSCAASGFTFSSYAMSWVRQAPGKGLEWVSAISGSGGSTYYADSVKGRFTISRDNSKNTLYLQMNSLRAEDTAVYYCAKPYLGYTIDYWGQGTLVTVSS
VL: B1 VL
notes: also called 51A12 human IgG1 antibody; clone 51A12 IgG
B17: 4F3 IgG (antibody, V domains shown)
VH: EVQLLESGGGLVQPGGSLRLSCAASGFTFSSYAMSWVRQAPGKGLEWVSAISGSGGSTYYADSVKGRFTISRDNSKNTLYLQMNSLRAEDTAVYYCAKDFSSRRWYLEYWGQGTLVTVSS
VL: B3 VL
notes: also called 4F3 human IgG1 antibody; clone 4F3
B18: R5C2 IgG (antibody, V domains shown)
VH: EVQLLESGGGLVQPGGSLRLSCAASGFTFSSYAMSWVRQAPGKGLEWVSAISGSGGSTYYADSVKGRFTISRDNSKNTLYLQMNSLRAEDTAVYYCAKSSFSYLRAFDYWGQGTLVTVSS
VL: B4 VL with K50R, N91D, V92R, K95Y, L96S
notes: also called R5C2 human IgG1 antibody
B19: R9E10 IgG (antibody, V domains shown)
VH: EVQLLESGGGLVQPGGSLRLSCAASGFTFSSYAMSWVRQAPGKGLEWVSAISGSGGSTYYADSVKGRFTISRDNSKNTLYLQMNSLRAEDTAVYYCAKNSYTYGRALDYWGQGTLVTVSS
VL: B4 VL
notes: also called R9E10 human IgG1 antibody
B20: R7E12 IgG (antibody, V domains shown)
VH: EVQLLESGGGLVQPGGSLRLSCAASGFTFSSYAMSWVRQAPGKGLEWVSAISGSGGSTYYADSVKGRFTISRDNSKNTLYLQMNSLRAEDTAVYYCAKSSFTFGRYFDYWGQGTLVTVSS
VL: B2 VL with G90R, A91K, G94S, N95K, Q96N, L97V
notes: To be rechecked

Positions count from the first letter of the chain named. In names and notes the source's numbering stands.

The target of one test is T1, avi-Fc-human ASGPR H1 CRD (human, UniProt P0DOX5 223-449 = IgG part, biotinylated at the N-terminal Avi tag).
T1 construct: also called Fc-CRD; hu/cyASGPR H1 CRD
The test is described as follows: SPR (ProteOn XPR36), antigen captured by neutravidin, Fab as analyte.
Broadly, the Kd is the constant that tells how readily two partners part at equilibrium. Read a low Kd as tighter binding. What is called koff is a measure of how fast the partners let go of each other. A higher koff goes with fast dissociation. Usually kon stands for the rate constant with which the complex forms. Read a low kon as slow association. In the case of B1, the Kd came to 0.57 nM, the off-rate constant (koff) amounted to 6.28e-05 s⁻¹ and the kon amounted to 110000 M⁻¹ s⁻¹.

Molecule B2 yielded a Kd of 28.6 nM, an off-rate (koff) of 0.00396 s⁻¹ and a kon of 139000 M⁻¹ s⁻¹.

A further test deals with T2, avi-Fc-human ASGPR H1 stalk (human, biotinylated at the N-terminal Avi tag).
T2 construct: Homodimeric Fc fusion (wild type Fc); also called huASGPR H1 stalk; Fc-stalk
T2 sequence (chain, as listed by the source limits assumed): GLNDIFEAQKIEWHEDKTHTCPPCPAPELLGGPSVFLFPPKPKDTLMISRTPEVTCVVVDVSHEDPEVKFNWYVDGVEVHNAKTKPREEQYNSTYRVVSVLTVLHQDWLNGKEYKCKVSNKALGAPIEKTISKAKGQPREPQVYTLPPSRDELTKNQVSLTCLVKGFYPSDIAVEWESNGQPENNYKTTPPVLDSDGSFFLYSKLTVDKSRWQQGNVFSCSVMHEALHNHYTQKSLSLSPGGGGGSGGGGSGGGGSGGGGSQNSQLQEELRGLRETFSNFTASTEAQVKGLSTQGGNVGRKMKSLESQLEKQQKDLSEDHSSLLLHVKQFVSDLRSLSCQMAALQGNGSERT
The description is as above.
Consider B3, for which binding was put at a Kd of 29.5 nM, the off-rate constant (koff) was found to be 0.00445 s⁻¹ and the association rate constant (kon) came out at 151000 M⁻¹ s⁻¹.

For the next test, the target named is T3, avi-Fc-cynomolgus ASGPR H1 stalk (cynomolgus, biotinylated at the N-terminal Avi tag).
T3 construct: Homodimeric Fc fusion (wild type Fc); also called cyASGPR H1 stalk
T3 sequence (chain, as listed by the source limits assumed): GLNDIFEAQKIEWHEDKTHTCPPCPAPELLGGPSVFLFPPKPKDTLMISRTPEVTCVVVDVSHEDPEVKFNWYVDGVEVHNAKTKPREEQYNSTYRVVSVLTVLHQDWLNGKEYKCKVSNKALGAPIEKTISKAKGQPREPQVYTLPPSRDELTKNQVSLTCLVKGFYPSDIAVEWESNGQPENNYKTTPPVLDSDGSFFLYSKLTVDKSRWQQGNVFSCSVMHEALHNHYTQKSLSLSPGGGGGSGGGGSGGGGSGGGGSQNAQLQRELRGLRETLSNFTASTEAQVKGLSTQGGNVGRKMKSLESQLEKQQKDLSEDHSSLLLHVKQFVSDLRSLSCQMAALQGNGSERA
The test is described as above.
For the molecule B3, binding was put at a Kd of 33.6 nM, the koff was found to be 0.0048 s⁻¹ and the kon was 143000 M⁻¹ s⁻¹.

In the next test the target is T4, avi-Fc-human ASGPR H1 stalk CRD (human, biotinylated at the N-terminal Avi tag).
T4 construct: Homodimeric (bivalent) Fc fusion of the human ASGPR H1 ECD (stalk and CRD); also called huASGPR H1 stalk CRD; Fc-stalk-CRD
Described as above.
Molecule B3 yielded a dissociation constant Kd of 18.2 nM, an off-rate constant (koff) of 0.00408 s⁻¹ and a kon of 224000 M⁻¹ s⁻¹.

For B4, the Kd is 3.6 nM, the koff is 0.00211 s⁻¹ and the kon stood at 586000 M⁻¹ s⁻¹.

As to B5, binding was put at a Kd of 2.65 nM, the koff is 0.00112 s⁻¹ and the kon was found to be 423000 M⁻¹ s⁻¹.

For B6, binding was put at a Kd of 9.12 nM, the dissociation rate constant (koff) is 0.00268 s⁻¹ and the on-rate (kon) was 294000 M⁻¹ s⁻¹.

The target of a further test is T5, avi-Fc-cynomolgus ASGPR H1 stalk CRD (cynomolgus, biotinylated at the N-terminal Avi tag).
T5 construct: Homodimeric Fc fusion of the cynomolgus ASGPR H1 ECD; also called cyASGPR H1 stalk CRD
The test is described as above.
B3 registered an equilibrium dissociation constant (Kd) of 21.6 nM, a dissociation rate constant (koff) of 0.00365 s⁻¹ and a kon of 169000 M⁻¹ s⁻¹.

For B4, the Kd was found to be 4.34 nM, the dissociation rate constant (koff) was 0.00199 s⁻¹ and the kon is 460000 M⁻¹ s⁻¹.

On to B5, for which the equilibrium dissociation constant (Kd) was determined as 3.41 nM, the off-rate (koff) is 0.00114 s⁻¹ and the kon is 334000 M⁻¹ s⁻¹.

As for B6, the Kd was 9.55 nM, the koff was 0.00236 s⁻¹ and the kon came to 247000 M⁻¹ s⁻¹.

The target of the next test is T6, avi-Fc-human CLEC10A stalk CRD (human, biotinylated at the N-terminal Avi tag).
T6 construct: Homodimeric Fc fusion of the human CLEC10A ECD, closest homologue of ASGPR H1, used as specificity control; also called huCLEC10A stalk CRD
T6 sequence (chain, as listed by the source limits assumed): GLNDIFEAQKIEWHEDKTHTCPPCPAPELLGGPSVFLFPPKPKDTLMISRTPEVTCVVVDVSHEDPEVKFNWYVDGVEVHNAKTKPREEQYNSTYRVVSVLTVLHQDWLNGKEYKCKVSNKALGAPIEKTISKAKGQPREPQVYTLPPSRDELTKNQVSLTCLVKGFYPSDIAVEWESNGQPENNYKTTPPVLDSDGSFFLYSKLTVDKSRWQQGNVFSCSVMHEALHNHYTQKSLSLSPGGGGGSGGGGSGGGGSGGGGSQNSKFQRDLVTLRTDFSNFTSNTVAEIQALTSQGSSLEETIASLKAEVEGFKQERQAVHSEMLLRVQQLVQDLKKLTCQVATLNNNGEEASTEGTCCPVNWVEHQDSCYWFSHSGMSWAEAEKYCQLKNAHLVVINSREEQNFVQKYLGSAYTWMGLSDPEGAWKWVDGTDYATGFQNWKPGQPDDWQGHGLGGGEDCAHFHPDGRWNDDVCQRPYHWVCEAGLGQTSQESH
The description is as above.
In the case of B3, the binding result is given as “no binding”.

Regarding B4, the binding result is given as “no binding”.

B5: the binding result is “no binding”.

For the molecule B2, the binding result is given as “no binding”.

As for B6, the binding result is “no binding”.

Another test addresses T1, avi-Fc-human ASGPR H1 CRD. Described as above. The source holds these as a separate data set.
With B7, the equilibrium dissociation constant (Kd) turned out to be 1.25 nM, the off-rate constant (koff) was 0.00016 s⁻¹ and the kon came out at 127000 M⁻¹ s⁻¹.

In turn, B8 yielded a Kd of 0.448 nM, a koff of 9.64e-05 s⁻¹ and an on-rate constant (kon) of 215000 M⁻¹ s⁻¹.

On to B1, for which the dissociation constant (Kd) was found to be 0.57 nM, the dissociation rate constant (koff) came out at 6.28e-05 s⁻¹ and the kon was determined as 110000 M⁻¹ s⁻¹.

B9: the Kd turned out to be 0.51 nM, the off-rate constant (koff) amounted to 8.3e-05 s⁻¹ and the kon was found to be 163000 M⁻¹ s⁻¹.

Regarding B10, the dissociation constant Kd was found to be 0.0801 nM, the off-rate (koff) turned out to be 2.61e-05 s⁻¹ and the kon worked out at 326000 M⁻¹ s⁻¹.

As to B11, binding was put at a Kd of 1.43 nM, the koff was determined as 0.000178 s⁻¹ and the association rate constant (kon) turned out to be 131000 M⁻¹ s⁻¹.

With B12, the dissociation constant (Kd) came out at 0.235 nM, the koff was 4.67e-05 s⁻¹ and the kon was 199000 M⁻¹ s⁻¹.

B13 returned a Kd of 0.221 nM, a koff of 8.85e-05 s⁻¹ and a kon of 400000 M⁻¹ s⁻¹.

For B14, binding was put at a Kd of 0.241 nM, the koff stood at 4.19e-05 s⁻¹ and the on-rate (kon) came out at 174000 M⁻¹ s⁻¹.

As to B15, the Kd is 0.325 nM, the dissociation rate constant (koff) came out at 2.79e-05 s⁻¹ and the kon worked out at 86000 M⁻¹ s⁻¹.

Another test has as its target T1, avi-Fc-human ASGPR H1 CRD. The test is described as follows: SPR (ProteOn XPR36), antigen captured by neutravidin, antibody construct as analyte.
Consider B1, for which binding was put at a Kd of 0.571 nM, the koff worked out at 6.28e-05 s⁻¹ and the association rate constant (kon) was determined as 110000 M⁻¹ s⁻¹.

In turn, B16 yielded a Kd of 0.21 nM, a koff of 7.34e-05 s⁻¹ and a kon of 350000 M⁻¹ s⁻¹.

B2 gave a dissociation constant (Kd) of 28.6 nM, a koff of 0.00396 s⁻¹ and a kon of 139000 M⁻¹ s⁻¹.

A further test addresses T7, full-length human ASGPR H1 with a C-terminal SNAP tag, on transfected HEK293 cells (human, UniProt P07306 1-291, SNAP tag labeled with SNAP-Lumi4Tb (terbium)).
T7 construct: whole, on cells; Transiently expressed in HEK293 cells for the FRET assay; also called transmembrane ASGPR H1-SNAP tag fusion protein labeled with terbium
T7 sequence (looked up): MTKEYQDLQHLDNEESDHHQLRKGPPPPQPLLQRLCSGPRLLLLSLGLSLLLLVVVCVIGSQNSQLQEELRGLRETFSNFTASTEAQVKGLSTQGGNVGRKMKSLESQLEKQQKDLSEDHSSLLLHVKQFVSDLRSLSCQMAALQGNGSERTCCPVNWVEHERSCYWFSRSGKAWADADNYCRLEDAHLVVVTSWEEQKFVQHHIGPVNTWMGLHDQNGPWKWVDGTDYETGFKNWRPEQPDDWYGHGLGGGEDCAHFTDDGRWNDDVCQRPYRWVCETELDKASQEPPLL
The test is described as follows: FRET on HEK293 cells expressing terbium-labeled ASGPR H1-SNAP; IgG1 at 50-0.39 nM, anti-humanFc-d2 as acceptor.
B16 returned a dissociation constant Kd of 200 nM. In other words, the sub-micromolar range.

Consider B17, for which the equilibrium dissociation constant (Kd) worked out at 4.5 nM.

The molecule B18 returned a dissociation constant (Kd) of 5.9 nM. The Kd values of the last two molecules are within 1.5-fold of each other.

B19 yielded a dissociation constant Kd of 6.2 nM.

Molecule B20 yielded a Kd of 22 nM. Against the preceding molecule, the Kd is about 3.5-fold higher.

A further test addresses T8, human ASGPR H1 on ASGPR-positive hepatic cells (HepG2, primary human hepatocytes, Huh-7) (human, UniProt P07306 1-291).
T8 construct: whole, on cells; Endogenous receptor on cells; the antibodies were selected on H1; also called surface-exposed ASGPR
T8 sequence (looked up): T7 sequence (looked up)
The test can be described thus: FACS on HepG2 cells, purified Fab at 1.1, 3.3 and 10 µg/ml, 30 min at 4°C, FITC anti-human F(ab')2 secondary.
In the case of B8, the binding result is recorded as “binds”.

On to B9, for which the binding result is “binds”.

With B10, the binding result is “binds”.

For B11, the binding result is “binds”.

As to B12, the binding result was “binds”.

For the molecule B13, the binding result was “binds”.

B14: the binding result is recorded as “binds”.

As to B15, the binding result was “binds”.

Values taken from patent US20190031760A1 (Hoffmann-La Roche, published 2019).
